{
  "source": "patent US20070286806A1",
  "about": "“Methods and Compositions for Modulating a Steroid Receptor” (Mount Sinai Hospital, priority 2004, published 2007)",
  "molecules": {"B1": {"name": "polypyrimidine tract binding protein-associated splicing factor (protein)", "chain": "MSRDRFRSRGGGGGGFHRRGGGGGRGGLHDFRSPPPGMGLNQNRGPMGPGPGQSGPKPPIPPPPPHQQQQQPPPQQPPPQQPPPHQPPPHPQPHQQQQPPPPPQDSSKPVVAQGPGPAPGVGSAPPASSSAPPATPPTSGAPPGSGPGPTPTPPPAVTSAPPGAPPPTPPSSGVPTTPPQAGGPPPPPAAVPGPGPGPKQGPGPGGPKGGKMPGGPKPGGGPGLSTPGGHPKPPHRGGGEPRGGRQHHPPYHQQHHQGPPPGGPGGRSEEKISDSEGFKANLSLLRRPGEKTYTQRCRLFVGNLPADITEDEFKRLFAKYGEPGEVFINKGKGFGFIKLESRALAEIAKAELDDTPMRGRQLRVRFATHAAALSVRNLSPYVSNELLEEAFSQFGPIERAVVIVDDRGRSTGKGIVEFASKPAARKAFERCSEGVFLLTTTPRPVIVEPLEQLDDEDGLPEKLAQKNPMYQKERETPPRFAQHGTFEYEYSQRWKSLDEMEKQQREQVEKNMKDAKDKLESEMEDAYHEHQANLLRQDLMRRQEELRRMEELHNQEMQKRKEMQLRQEEERRRREEEMMIRQREMEEQMRRQREESYSRMGYMDPRERDMRMGGGGAMNMGDPYGSGGQKFPPLGGGGGIGYEANPGVPPATMSGSMMGSDMRTERFGQGGAGPVGGQGPRGMGPGTPAGYGRGREEYEGPNKKPRF", "notes": "expressed from transfected His-PSF vector or in vitro translated"}},
  "system": "PRA and PRB protein",
  "experiment": "PR protein level by western blot of whole cell lysate after co-transfection in SHM cells",
  "format": "cell-based",
  "experimental": "FIG. 5. […] (A) SHM cells were transient transfected (eighteen hours) with PRA or PRB expression vector with or without increasing doses (0.2, 0.5, 1.0 and 2.0 μg) of His-PSF vector as indicated. Whole cell lysate was analyzed by western blot with PR or His tag antibody. NS=non-specific binding. (B) SHM cells were transient transfected (eighteen hours) with PRA or PRB expression vector together with 2.0 μg His tagged PSF1-707 or truncated PSF1-662. Culture media was added with or without 60 nM MG132 (Z-Leu-Leu-Leu-a1) as indicated for another 6 hours. Whole cell lysate was analyzed by western blot with PR or His tag antibody. Gβ protein was also detected as the cell lysate loading control.\nFor immunoprecipitation of the endogenous PR and PSF, T47D cells cultured in 150 mm dishes were lysed in 800 μl NETN buffer containing 150 mM NaCl plus protease inhibitor cocktail. Cell lysate were then incubated with 5 μg of PR or PSF, or control mouse IgG at 4° C. overnight, followed by the addition of 30 μl of protein A/G PLUS-agarose beads (Santa Cruz) for another two hours at 4° C. Resins were washed with NETN containing 250 mM NaCl and eluted with 1×Laemmli buffer. The eluted proteins along with the whole cell extract were western blotted by PR or PSF antibody. • GST pulldown assay: GST pulldown assay was performed as previously described (20). GST and its fusion proteins were first immobilized to glutathione-Sepharose 4B affinity matrix. The matrix was then incubated at 4° C. overnight with rabbit reticulocyte lysate (Promega) containing PR or His-PSF transcribed and translated in presence of ^35S methionine. The matrix was washed three times with cold NETN buffer before adding 1 ×Laemmli buffer to elute associated proteins. The eluted proteins were separated on 10% SDS-PAGE gel. Gels were treated with Enhancer (NEN, Boston, US) dried and analyzed by autoradiography. • Cell culture and transient transfection: SHM cells and 293T cells were maintained in DMEM plus 5% FCS (Sigma) as described before (22). For experiments involving steroid exposure, the medium was substituted with phenol red free DMEM containing 5% charcoal-treated fetal bovine serum (Hyclone, Utah, USA). Transfection was performed according to manufacturers protocol (Fementas). Cells were seeded at a density to achieve 60-80% confluency the following day. The DNA and transfection reagent were mixed and added to the medium. Cell lysates were collected at least 30 hours after transfection. For luciferase assay, cells were collected in 200 μl of lysis buffer (Promega) of which 10μl was used for the luciferase and β-Gal activity assays respectively. Luciferase activity was determined by using the luciferin reagent (Promega) according to manufacture's protocol. […]",
  "data": [
    {"molecule": "B1", "values": [
      {"measurement": "PR proteins after co-transfection with PRB/PRA", "setting": "after 24 hours", "result": "total loss of PR proteins"},
      {"measurement": "level of PRA and PRB protein", "setting": "increasing dose of PSF expression vector, constant dose of PR vector", "result": "decrease"}
    ]}
  ]
}
